According to article PMC9482650, “Quantitative fragmentomics allow affinity mapping of interactomes” (Nature Communications, 2022):

molecular target: T1, APBA2_2, Q99767; assay: holdup assay; parameters: key: below the threshold = too weak to quantify, mostly under pKd 3.1 to 4; conditions: plain residues with an end cap or a label only (N-terminal biotin on a linker: ahx)
T1 sequence (Q99767 654-744, limits assumed, looked up): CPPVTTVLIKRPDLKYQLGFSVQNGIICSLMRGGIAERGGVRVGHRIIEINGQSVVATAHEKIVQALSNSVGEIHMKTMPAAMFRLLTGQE

Binder	pKd
PKMKLNETSF [SHKBP1, Q8TBC3]	below the threshold
ADENEQVSAV [RAPGEF6, Q8TEU7]	below the threshold
YNSFLSVTTV [PDZRN3, Q9UPQ7]	below the threshold

molecular target: ARHGEF12, Q9NZN5-2; assay: holdup assay; parameters: key: below the threshold = too weak to quantify, mostly under pKd 3.1 to 4; conditions: plain residues with an end cap or a label only (N-terminal biotin on a linker: ahx)
Sequence (Q9NZN5 other isoform, or with tags, fused parts or gaps): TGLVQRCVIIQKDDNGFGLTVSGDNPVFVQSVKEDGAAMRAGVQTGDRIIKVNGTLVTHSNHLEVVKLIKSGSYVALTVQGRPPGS

Binder	pKd
PKMKLNETSF [SHKBP1, Q8TBC3]	below the threshold
ADENEQVSAV [RAPGEF6, Q8TEU7]	3.83
YNSFLSVTTV [PDZRN3, Q9UPQ7]	4.25

molecular target: T2, CARD11, Q9BXL7; assay: holdup assay; parameters: key: below the threshold = too weak to quantify, mostly under pKd 3.1 to 4; conditions: plain residues with an end cap or a label only (N-terminal biotin on a linker: ahx)
T2 sequence (Q9BXL7 662-765, limits assumed, looked up): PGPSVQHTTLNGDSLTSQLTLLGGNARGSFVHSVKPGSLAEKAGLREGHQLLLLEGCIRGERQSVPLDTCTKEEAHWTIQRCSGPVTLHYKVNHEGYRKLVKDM

Binder	pKd
PKMKLNETSF [SHKBP1, Q8TBC3]	below the threshold
ADENEQVSAV [RAPGEF6, Q8TEU7]	below the threshold
YNSFLSVTTV [PDZRN3, Q9UPQ7]	below the threshold

molecular target: DLG2_3, Q15700; assay: holdup assay; parameters: key: below the threshold = too weak to quantify, mostly under pKd 3.1 to 4; conditions: plain residues with an end cap or a label only (N-terminal biotin on a linker: ahx)

Binder	pKd
PKMKLNETSF [SHKBP1, Q8TBC3]	below the threshold
ADENEQVSAV [RAPGEF6, Q8TEU7]	3.63
YNSFLSVTTV [PDZRN3, Q9UPQ7]	4.06

molecular target: GRID2IP_2, A4D2P6; assay: holdup assay; parameters: key: below the threshold = too weak to quantify, mostly under pKd 3.1 to 4; conditions: plain residues with an end cap or a label only (N-terminal biotin on a linker: ahx)
Sequence (A4D2P6 272-370): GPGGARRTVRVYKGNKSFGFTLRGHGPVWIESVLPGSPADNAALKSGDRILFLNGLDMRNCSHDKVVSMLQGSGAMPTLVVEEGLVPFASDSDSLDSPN

Binder	pKd
PKMKLNETSF [SHKBP1, Q8TBC3]	below the threshold
ADENEQVSAV [RAPGEF6, Q8TEU7]	4.19
YNSFLSVTTV [PDZRN3, Q9UPQ7]	3.57

molecular target: T3, GRIP1_4, Q9Y3R0; assay: holdup assay; parameters: key: below the threshold = too weak to quantify, mostly under pKd 3.1 to 4; conditions: plain residues with an end cap or a label only (N-terminal biotin on a linker: ahx)
T3 sequence (Q9Y3R0 467-571, limits assumed, looked up): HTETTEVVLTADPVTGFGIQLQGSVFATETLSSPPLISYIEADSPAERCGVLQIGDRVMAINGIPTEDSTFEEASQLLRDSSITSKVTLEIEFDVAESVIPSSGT

Binder	pKd
PKMKLNETSF [SHKBP1, Q8TBC3]	below the threshold
ADENEQVSAV [RAPGEF6, Q8TEU7]	below the threshold
YNSFLSVTTV [PDZRN3, Q9UPQ7]	below the threshold

molecular target: T4, GRIP1_7, Q9Y3R0; assay: holdup assay; parameters: key: below the threshold = too weak to quantify, mostly under pKd 3.1 to 4; conditions: plain residues with an end cap or a label only (N-terminal biotin on a linker: ahx)
T4 sequence (Q9Y3R0 999-1096, limits assumed, looked up): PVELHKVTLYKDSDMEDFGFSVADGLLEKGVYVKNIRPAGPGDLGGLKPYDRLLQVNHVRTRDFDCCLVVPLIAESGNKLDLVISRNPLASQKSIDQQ

Binder	pKd
PKMKLNETSF [SHKBP1, Q8TBC3]	below the threshold
ADENEQVSAV [RAPGEF6, Q8TEU7]	below the threshold
YNSFLSVTTV [PDZRN3, Q9UPQ7]	below the threshold

molecular target: HTRA1, Q92743; assay: holdup assay; parameters: key: below the threshold = too weak to quantify, mostly under pKd 3.1 to 4; conditions: plain residues with an end cap or a label only (N-terminal biotin on a linker: ahx)
Sequence (Q92743 360-477): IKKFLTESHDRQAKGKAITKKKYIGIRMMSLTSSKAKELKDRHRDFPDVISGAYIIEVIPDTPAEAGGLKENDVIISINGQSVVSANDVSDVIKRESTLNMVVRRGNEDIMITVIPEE

Binder	pKd
PKMKLNETSF [SHKBP1, Q8TBC3]	below the threshold
ADENEQVSAV [RAPGEF6, Q8TEU7]	3.94
YNSFLSVTTV [PDZRN3, Q9UPQ7]	4.3

molecular target: T5, HTRA3, P83110; assay: holdup assay; parameters: key: below the threshold = too weak to quantify, mostly under pKd 3.1 to 4; conditions: plain residues with an end cap or a label only (N-terminal biotin on a linker: ahx)
T5 sequence (P83110 354-453, limits assumed, looked up): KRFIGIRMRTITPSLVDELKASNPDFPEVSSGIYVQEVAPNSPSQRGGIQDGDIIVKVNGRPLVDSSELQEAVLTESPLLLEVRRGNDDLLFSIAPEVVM

Binder	pKd
PKMKLNETSF [SHKBP1, Q8TBC3]	below the threshold
ADENEQVSAV [RAPGEF6, Q8TEU7]	below the threshold
YNSFLSVTTV [PDZRN3, Q9UPQ7]	below the threshold

molecular target: IL16_3, Q14005; assay: holdup assay; parameters: key: below the threshold = too weak to quantify, mostly under pKd 3.1 to 4; conditions: plain residues with an end cap or a label only (N-terminal biotin on a linker: ahx)
Sequence (Q14005 1107-1207): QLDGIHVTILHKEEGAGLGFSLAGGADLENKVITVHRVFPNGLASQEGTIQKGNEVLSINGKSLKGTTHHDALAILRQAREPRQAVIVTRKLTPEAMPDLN

Binder	pKd
PKMKLNETSF [SHKBP1, Q8TBC3]	below the threshold
ADENEQVSAV [RAPGEF6, Q8TEU7]	below the threshold
YNSFLSVTTV [PDZRN3, Q9UPQ7]	below the threshold

molecular target: Inadl_6, Q8NI35; assay: holdup assay; parameters: key: below the threshold = too weak to quantify, mostly under pKd 3.1 to 4; conditions: plain residues with an end cap or a label only (N-terminal biotin on a linker: ahx)
Sequence (Q8NI35 1058-1167): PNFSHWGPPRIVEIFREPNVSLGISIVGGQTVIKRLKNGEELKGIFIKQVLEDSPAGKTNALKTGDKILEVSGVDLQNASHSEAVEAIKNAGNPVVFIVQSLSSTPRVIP

Binder	pKd
PKMKLNETSF [SHKBP1, Q8TBC3]	below the threshold
ADENEQVSAV [RAPGEF6, Q8TEU7]	3.59
YNSFLSVTTV [PDZRN3, Q9UPQ7]	below the threshold

molecular target: LAP2, Q96RT1; assay: holdup assay; parameters: key: below the threshold = too weak to quantify, mostly under pKd 3.1 to 4; conditions: plain residues with an end cap or a label only (N-terminal biotin on a linker: ahx)
Sequence (Q96RT1 other isoform, or with tags, fused parts or gaps): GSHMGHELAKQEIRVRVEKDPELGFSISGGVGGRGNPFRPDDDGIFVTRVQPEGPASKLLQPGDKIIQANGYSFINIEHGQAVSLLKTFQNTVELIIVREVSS

Binder	pKd
PKMKLNETSF [SHKBP1, Q8TBC3]	below the threshold
ADENEQVSAV [RAPGEF6, Q8TEU7]	below the threshold
YNSFLSVTTV [PDZRN3, Q9UPQ7]	below the threshold

molecular target: LIMK2, P53671; assay: holdup assay; parameters: key: below the threshold = too weak to quantify, mostly under pKd 3.1 to 4; conditions: plain residues with an end cap or a label only (N-terminal biotin on a linker: ahx)
Sequence (P53671 143-248): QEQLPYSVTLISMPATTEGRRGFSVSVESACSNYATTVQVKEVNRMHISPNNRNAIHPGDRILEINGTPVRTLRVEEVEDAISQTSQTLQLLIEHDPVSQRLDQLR

Binder	pKd
PKMKLNETSF [SHKBP1, Q8TBC3]	below the threshold
ADENEQVSAV [RAPGEF6, Q8TEU7]	below the threshold
YNSFLSVTTV [PDZRN3, Q9UPQ7]	below the threshold

molecular target: T6, LIN7A, O14910; assay: holdup assay; parameters: key: below the threshold = too weak to quantify, mostly under pKd 3.1 to 4; conditions: plain residues with an end cap or a label only (N-terminal biotin on a linker: ahx)
T6 sequence (O14910 103-200, limits assumed, looked up): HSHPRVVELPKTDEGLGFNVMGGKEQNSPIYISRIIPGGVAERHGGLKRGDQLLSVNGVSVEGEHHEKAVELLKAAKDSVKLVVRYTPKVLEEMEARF

Binder	pKd
PKMKLNETSF [SHKBP1, Q8TBC3]	below the threshold
ADENEQVSAV [RAPGEF6, Q8TEU7]	below the threshold
YNSFLSVTTV [PDZRN3, Q9UPQ7]	below the threshold

molecular target: T7, MPDZ_10, O75970; assay: holdup assay; parameters: key: below the threshold = too weak to quantify, mostly under pKd 3.1 to 4; conditions: plain residues with an end cap or a label only (N-terminal biotin on a linker: ahx)
T7 sequence (O75970 1624-1722, limits assumed, looked up): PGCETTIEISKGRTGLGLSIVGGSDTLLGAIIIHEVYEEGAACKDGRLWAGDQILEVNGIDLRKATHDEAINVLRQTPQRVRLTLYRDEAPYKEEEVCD

Binder	pKd
PKMKLNETSF [SHKBP1, Q8TBC3]	below the threshold
ADENEQVSAV [RAPGEF6, Q8TEU7]	below the threshold
YNSFLSVTTV [PDZRN3, Q9UPQ7]	3.96

molecular target: NHERF4_1, Q86UT5-2; assay: holdup assay; parameters: key: below the threshold = too weak to quantify, mostly under pKd 3.1 to 4; conditions: plain residues with an end cap or a label only (N-terminal biotin on a linker: ahx)
Sequence (Q86UT5 other isoform, or with tags, fused parts or gaps): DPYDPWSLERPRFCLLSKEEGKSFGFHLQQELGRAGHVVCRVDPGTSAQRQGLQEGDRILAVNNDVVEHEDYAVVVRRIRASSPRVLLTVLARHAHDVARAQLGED

Binder	pKd
PKMKLNETSF [SHKBP1, Q8TBC3]	3.73
ADENEQVSAV [RAPGEF6, Q8TEU7]	below the threshold
YNSFLSVTTV [PDZRN3, Q9UPQ7]	below the threshold

molecular target: T8, PCLO, Q9Y6V0; assay: holdup assay; parameters: key: below the threshold = too weak to quantify, mostly under pKd 3.1 to 4; conditions: plain residues with an end cap or a label only (N-terminal biotin on a linker: ahx)
T8 sequence (Q9Y6V0 4491-4600, limits assumed, looked up): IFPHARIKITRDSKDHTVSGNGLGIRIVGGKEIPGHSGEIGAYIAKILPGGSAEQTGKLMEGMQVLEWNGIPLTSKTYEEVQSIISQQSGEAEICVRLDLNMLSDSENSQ

Binder	pKd
PKMKLNETSF [SHKBP1, Q8TBC3]	below the threshold
ADENEQVSAV [RAPGEF6, Q8TEU7]	below the threshold
YNSFLSVTTV [PDZRN3, Q9UPQ7]	below the threshold

molecular target: T9, PDZD2_2, O15018; assay: holdup assay; parameters: key: below the threshold = too weak to quantify, mostly under pKd 3.1 to 4; conditions: plain residues with an end cap or a label only (N-terminal biotin on a linker: ahx)
T9 sequence (O15018 329-429, limits assumed, looked up): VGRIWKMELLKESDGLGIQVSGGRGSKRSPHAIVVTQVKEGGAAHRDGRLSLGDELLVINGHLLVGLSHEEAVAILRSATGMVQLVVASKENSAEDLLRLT

Binder	pKd
PKMKLNETSF [SHKBP1, Q8TBC3]	below the threshold
ADENEQVSAV [RAPGEF6, Q8TEU7]	5.5
YNSFLSVTTV [PDZRN3, Q9UPQ7]	3.55

molecular target: T10, RADIL, Q96JH8; assay: holdup assay; parameters: key: below the threshold = too weak to quantify, mostly under pKd 3.1 to 4; conditions: plain residues with an end cap or a label only (N-terminal biotin on a linker: ahx)
T10 sequence (Q96JH8 971-1071, limits assumed, looked up): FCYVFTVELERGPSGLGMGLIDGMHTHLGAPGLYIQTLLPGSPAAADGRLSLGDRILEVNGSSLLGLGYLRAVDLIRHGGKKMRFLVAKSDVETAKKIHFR

Binder	pKd
PKMKLNETSF [SHKBP1, Q8TBC3]	below the threshold
ADENEQVSAV [RAPGEF6, Q8TEU7]	below the threshold
YNSFLSVTTV [PDZRN3, Q9UPQ7]	4.2

molecular target: T11, SHANK1, Q9Y566; assay: holdup assay; parameters: key: below the threshold = too weak to quantify, mostly under pKd 3.1 to 4; conditions: plain residues with an end cap or a label only (N-terminal biotin on a linker: ahx)
T11 sequence (Q9Y566 658-767, limits assumed, looked up): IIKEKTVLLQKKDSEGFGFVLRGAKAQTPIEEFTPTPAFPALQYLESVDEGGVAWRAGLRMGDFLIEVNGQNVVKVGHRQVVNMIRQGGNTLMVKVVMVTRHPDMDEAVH

Binder	pKd
PKMKLNETSF [SHKBP1, Q8TBC3]	4.21
ADENEQVSAV [RAPGEF6, Q8TEU7]	3.88
YNSFLSVTTV [PDZRN3, Q9UPQ7]	3.66

molecular target: T12, SIPA1L2, Q9P2F8; assay: holdup assay; parameters: key: below the threshold = too weak to quantify, mostly under pKd 3.1 to 4; conditions: plain residues with an end cap or a label only (N-terminal biotin on a linker: ahx)
T12 sequence (Q9P2F8 945-1036, limits assumed, looked up): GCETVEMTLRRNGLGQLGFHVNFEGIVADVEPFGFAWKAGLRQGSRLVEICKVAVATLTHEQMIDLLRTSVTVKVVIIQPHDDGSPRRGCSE

Binder	pKd
PKMKLNETSF [SHKBP1, Q8TBC3]	below the threshold
ADENEQVSAV [RAPGEF6, Q8TEU7]	below the threshold
YNSFLSVTTV [PDZRN3, Q9UPQ7]	below the threshold

molecular target: T13, SNTG1, Q9NSN8; assay: holdup assay; parameters: key: below the threshold = too weak to quantify, mostly under pKd 3.1 to 4; conditions: plain residues with an end cap or a label only (N-terminal biotin on a linker: ahx)
T13 sequence (Q9NSN8 52-150, limits assumed, looked up): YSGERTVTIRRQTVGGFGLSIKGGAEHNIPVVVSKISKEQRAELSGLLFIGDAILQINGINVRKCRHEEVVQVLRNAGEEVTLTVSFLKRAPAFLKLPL

Binder	pKd
PKMKLNETSF [SHKBP1, Q8TBC3]	3.68
ADENEQVSAV [RAPGEF6, Q8TEU7]	4.07
YNSFLSVTTV [PDZRN3, Q9UPQ7]	3.79

molecular target: TJP1_2, Q07157; assay: holdup assay; parameters: key: below the threshold = too weak to quantify, mostly under pKd 3.1 to 4; conditions: plain residues with an end cap or a label only (N-terminal biotin on a linker: ahx)
Sequence (Q07157 181-274): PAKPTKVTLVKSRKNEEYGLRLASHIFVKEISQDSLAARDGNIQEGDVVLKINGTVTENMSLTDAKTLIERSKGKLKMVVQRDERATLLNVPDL

Binder	pKd
PKMKLNETSF [SHKBP1, Q8TBC3]	below the threshold
ADENEQVSAV [RAPGEF6, Q8TEU7]	below the threshold
YNSFLSVTTV [PDZRN3, Q9UPQ7]	below the threshold
